Assay [1] addresses T1, ActRIIA-mFc (human, UniProt P27037 21-135).
T1 construct: also called RAP-011; sotatercept analog RAP-011; not shown: "minimal linker"; mouse Fc domain
Description: similar binding assay (Biacore). In general terms: In SPR one partner is held on a chip, and binding of the other changes the refractive index at the surface.

Assay [2] deals with T1, ActRIIA-mFc. Put plainly: SPR (Biacore), ligand amine-coupled on CM5 chip, ActRIIA-mFc as analyte. As for the experimental part: GDF11 or activin A were immobilized on a Biacore™ CM5 chip using standard amine-coupling procedure. ActRIIA-hFc and ActRIIA-mFc proteins were loaded onto the system, and binding was measured. […] Using a similar binding assay, ActRIIA-hFc was determined to have high to moderate affinity for other TGF-beta superfamily ligands including, for example, activin B, GDF8, BMP6, and BMP10. ActRIIA-mFc behaved similarly.

T1 sequence (P27037 21-135): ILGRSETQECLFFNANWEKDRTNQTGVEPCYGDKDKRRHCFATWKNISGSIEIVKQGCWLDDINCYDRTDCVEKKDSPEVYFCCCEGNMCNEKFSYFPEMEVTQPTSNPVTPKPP

B1: BMP10 (ligand, UniProt O95393 317-424, looked up)
chain: NAKGNYCKRTPLYIDFKEIGWDSWIIAPPGYEAYECRGVCNYPLAEHLTPTKHAIIQALVHLKNSQKASKACCVPTKLEPISILYLDKGVVTYKFKYEGMAVSECGCR
For the molecule B1, the binding result in the assay with ActRIIA-mFc [1] is “binds”.

B2: GDF11 (ligand, UniProt O95390 299-407, looked up)
chain: NLGLDCDEHSSESRCCRYPLTVDFEAFGWDWIIAPKRYKANYCSGQCEYMFMQKYPHTHLVQQANPRGSAGPCCTPTKMSPINMLYFNDKQQIIYGKIPGMVVDRCGCS
notes: Immobilized on a Biacore CM5 chip by amine coupling
Regarding B2, the binding result with ActRIIA-mFc [2] was “binds”.

The values are drawn from US20240174733A1 (ACCELERON PHARMA, published 2024).
